Assay results published in US11015206B2, “Compositions and methods comprising sequences having hydroxyphenylpyruvate dioxygenase (HPPD) activity” (PIONEER HI-BRED INTERNATIONAL, INC., priority 2014, dated 2021).
Where a chain is given by its changes, count along the chain named.

B1: SEQ ID NO 1 (protein)
chain: MGPTPTAAAAGAAVAAASAAEQAAFRLVGHRNFVRFNPRSDRFHTLAFHHVELWCADAASAAGRFSFGLGAPLAARSDLSTGNSAHASLLLRSGSLSFLFTAPYAHGADAATAALPSFSAAAARRFAADHGLAVRAVALRVADAEDAFRASVAAGARPAFGPVDLGRGFRLAEVELYGDVVLRYVSYPDGAAGEPFLPGFEGVASPGAADYGLSRFDHIVGNVPELAPAAAYFAGFTGFHEFAEFTTEDVGTAESGLNSMVLANNSENVLLPLNEPVHGTKRRSQIQTFLDHHGGPGVQHMALASDDVLRTLREMQARSAMGGFEFMAPPTSDYYDGVRRRAGDVLTEAQIKECQELGVLVDRDDQGVLLQIFTKPVGDRPTLFLEIIQRIGCMEKDEKGQEYQKGGCGGFGKGNFSQLFKSIEDYEKSLEAKQAAAAAAAQGS
modifications: Zea mays
B2: P056028-G-10 (protein)
chain: MGPTPTATAAGAAVAAASAAEQAAFRLVGHRNFVRFNPRSDRFQTLAFHHVELWCADAASAAGRFSFALGVPLAARSDLSTGNSAHASLLLRSGSLSLLFTAPYAHGADAATAALPSFSAAAARRFAADHGLAVRAVALRVADAEDAFRASVAAGARKAFGPVDLGRGFRLAEVELYGDVVLRYVSYPDGAAGEPFLPGFEGVASPGAADYGLSRFDHIVGNVPELAPAAAYMAGFTGFHEFAEFTTEDVGTTESGLNSMALANNSENVLLPLNEPVHGTKRRSQIQTFLDHHGGPGVQHIALASDDVLRTLREMRARSAMGGFEFPPPPLSDYYDGVRRCAGDVLTEAQINECQELGVMVDRDDEGVLLQIFTKPVGDRPTFFLEIIQRIGCMEKDEKGQEYQKGGCGGFGKGNFQQLFKSIEDYEKSLEAKQAAAAATAQGS
modifications: Zea mays variant form created by artificial means.
B3: P056028-G-09 (protein)
chain: B2 chain with P327L, M394V, Q417G
modifications: Zea mays variant form created by artificial means.
B4: P056028-G-02 (protein)
chain: B2 chain with K158P, M233V, P327L, Q417G
modifications: Zea mays variant form created by artificial means.
B5: P056028-G-05 (protein)
chain: B2 chain with K158P, A191G, P206Q, Y211L, S214N, P327L, R340K, L385I, Q434R
modifications: Zea mays variant form created by artificial means.
B6: P056028-G-07 (protein)
chain: B2 chain with K158P, P206Q, P327L, R340K, E356R, Q417G
modifications: Zea mays variant form created by artificial means.
B7: P056028-G-08 (protein)
chain: B2 chain with K158P, Y211L, P327L, R340K, E356K, Q417G
modifications: Zea mays variant form created by artificial means.
B8: P056028-G-06 (protein)
chain: B2 chain with K158P, L182M, P206Q, S214N, P327L, R340K, I387L, Q417G
modifications: Zea mays variant form created by artificial means.
B9: P056028-G-04 (protein)
chain: B2 chain with K158P, Y211L, P327L, L385I, I387L, Q417G
modifications: Zea mays variant form created by artificial means.

These molecules were tested on 4-hydroxyphenylpyruvate dioxygenase (HPPD) (assay: ON rate ratio: HPPD reaction rate with vs without inhibitor in the 70 to 90 second interval). Conditions: Megatable 2.
Format: biochemical, Z. mays
Method in brief: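 Indicator of inhibitor on-rate: reaction velocity in the 70 to 90 second window with 4 μM inhibitor divided by that without. Reactions contained 100 μM HPP and 60 or 120 nM HPPD; slower binding gives a larger ratio.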

| Molecule | ON Rat. (ON ratio parameter) |
| --- | --- |
| B1 | 0.17 |

Same assay, conditions: Table 7; tembotrione; combinatorial variants

| Molecule | ON rate ratio |
| --- | --- |
| B2 | 0.607 |
| B3 | 0.716 |
| B4 | 0.761 |
| B5 | 0.739 |
| B6 | 0.702 |
| B7 | 0.737 |
| B8 | 0.725 |
| B9 | 0.752 |

What follows are molecules tested on 4-hydroxyphenylpyruvate dioxygenase (HPPD) (assay: Estimate of kcat from initial rate at saturating hydroxyphenylpyruvate without inhibitor (ON rate ratio assay)). Conditions: Megatable 2; single substitutions, positions numbered per SEQ ID NO:1.
Format: biochemical, Z. mays
Method in brief: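 kcat was estimated from the initial reaction rate with known enzyme level (60 or 120 nM HPPD). Hydroxyphenylpyruvate was at a saturating 100 μM, with no inhibitor present.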

| Molecule | kcat [s⁻¹] |
| --- | --- |
| B1 | 3.5 |

Same assay, conditions: Megatable 3; shuffled variants

| Molecule | kcat [s⁻¹] |
| --- | --- |
| B2 | 0.488 |
| B3 | 0.263 |
| B4 | 0.383 |
| B5 | 0.278 |
| B6 | 0.255 |
| B7 | 0.197 |
| B8 | 0.2 |
| B9 | 0.227 |

Same assay, conditions: Table 7; combinatorial variants

| Molecule | kcat [s⁻¹] |
| --- | --- |
| B2 | 0.488 |
| B3 | 0.263 |
| B4 | 0.383 |
| B5 | 0.278 |
| B6 | 0.255 |
| B7 | 0.197 |
| B8 | 0.2 |
| B9 | 0.227 |

The molecules below were run on 4-hydroxyphenylpyruvate dioxygenase (HPPD) (assay: OFF rate ratio: release of inhibitor from pre-formed enzyme-inhibitor complex). Conditions: Megatable 2.
Format: biochemical, Z. mays
Method in brief: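 Inhibitor release from pre-formed complex (enzyme 7.2 μM, inhibitor 8 μM, 1 h RT) tracked as accelerating HPPD activity at 320 nm over 12 min, coupled via 50 nM HGD with 100 μM HPP at pH 7. OFF rate ratio: steady-state velocity relative to uninhibited initial velocity.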

| Molecule | OFF Rat. (OFF ratio parameter) |
| --- | --- |
| B1 | 0.03 |

Same assay, conditions: Table 7; tembotrione; combinatorial variants

| Molecule | OFF rate ratio |
| --- | --- |
| B2 | 0.259 |
| B3 | 0.385 |
| B4 | 0.304 |
| B5 | 0.361 |
| B6 | 0.304 |
| B7 | 0.379 |
| B8 | 0.382 |
| B9 | 0.248 |

The molecules below were run on 4-hydroxyphenylpyruvate dioxygenase (HPPD) (assay: Insensitivity parameter (ON × OFF) and trait fitness (ON × OFF × kcat/KM or × kcat)). Conditions: Megatable 2.
Format: biochemical, Z. mays
Set-up: key to ON × OFF / Insensitivity, mesotrione, ON × OFF / Insensitivity, tembotrione, ON × OFF / Insensitivity, topramezone, ON × OFF / Insensitivity, sulcotrione, ON × OFF / Insensitivity, isoxaflutole (DKN), ON × OFF: insensitivity = ON rate ratio × OFF rate ratio (surrogate for KD)
Method in brief: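 Trait fitness combines catalysis and insensitivity as kcat/KM × ON rate ratio × OFF rate ratio. The insensitivity parameter is the product of ON and OFF rate ratios, used in place of KD because the ON rate ratio is inverse.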

| Molecule | ON × OFF (product of ON ratio and OFF ratio) | ON × OFF kcat (product of ON ratio, OFF ratio and kcat) |
| --- | --- | --- |
| B1 | 0.0051 | 1.07 |

Same assay, conditions: Megatable 2; fold of ON × OFF

| Molecule | Fold vs. wt (ON × OFF versus wild-type SEQ ID NO:1) |
| --- | --- |
| B1 | 1.00 |

Same assay, conditions: Megatable 2; fold of ON × OFF × kcat

| Molecule | Fold vs. wt (ON × OFF × kcat versus wild-type SEQ ID NO:1) |
| --- | --- |
| B1 | 1.00 |

Same assay, conditions: Megatable 3; shuffled variants

| Molecule | ON × OFF | ON × OFF × kcat |
| --- | --- | --- |
| B2 | 0.157 | 4.61 |
| B3 | 0.275 | 4.37 |
| B4 | 0.231 | 5.30 |
| B5 | 0.267 | 4.47 |
| B6 | 0.213 | 3.23 |
| B7 | 0.279 | 3.29 |
| B8 | 0.277 | 3.30 |
| B9 | 0.186 | 2.54 |

Same assay, conditions: Table 7; tembotrione; combinatorial variants

| Molecule | ON × OFF | ON × OFF × kcat |
| --- | --- | --- |
| B2 | 0.157 | 4.61 |
| B3 | 0.275 | 4.37 |
| B4 | 0.231 | 5.30 |
| B5 | 0.267 | 4.47 |
| B6 | 0.213 | 3.23 |
| B7 | 0.279 | 3.29 |
| B8 | 0.277 | 3.30 |
| B9 | 0.186 | 2.54 |
